{"source": "patent US20220031813A1", "about": "“INHIBITOR OF EXTRACELLULAR TRAP FORMATION IN LEUKOCYTES” (priority 2013, published 2022)", "molecules": {"B1": {"name": "human lactoferrin: human lactoferrin, Cat No. SIGL6793, SIGMA; called human neutrophil-derived lactoferrin (protein, UniProt P02788 20-710, looked up)", "Lactotransferrin": "GRRRSVQWCAVSQPEATKCFQWQRNMRKVRGPPVSCIKRDSPIQCIQAIAENRADAVTLDGGFIYEAGLAPYKLRPVAAEVYGTERQPRTHYYAVAVVKKGGSFQLNELQGLKSCHTGLRRTAGWNVPIGTLRPFLNWTGPPEPIEAAVARFFSASCVPGADKGQFPNLCRLCAGTGENKCAFSSQEPYFSYSGAFKCLRDGAGDVAFIRESTVFEDLSDEAERDEYELLCPDNTRKPVDKFKDCHLARVPSHAVVARSVNGKEDAIWNLLRQAQEKFGKDKSPKFQLFGSPSGQKDLLFKDSAIGFSRVPPRIDSGLYLGSGYFTAIQNLRKSEEEVAARRARVVWCAVGEQELRKCNQWSGLSEGSVTCSSASTTEDCIALVLKGEADAMSLDGGYVYTAGKCGLVPVLAENYKSQQSSDPDPNCVDRPVEGYLAVAVVRRSDTSLTWNSVKGKKSCHTAVDRTAGWNIPMGLLFNQTGSCKFDEYFSQSCAPGSDPRSNLCALCIGDEQGENKCVPNSNERYYGYTGAFRCLAENAGDVAFVKDVTVLQNTDGNNNEAWAKDLKLADFALLCLDGKRKPVTEARSCHLAMAPNHAVVSRMDKVERLKQVLLHQQAKFGRNGSDCPDKFCLFQSETKNLLFNDNTECLARLHGKTTYEKYLGPQYVAGITNLKKCSTSPLLEACEFLRK"}, "B2": {"name": "angiogenin: bovine milk protein, known as a tumor angiogenesis factor, eluted from SP-Sepharose column (protein, UniProt P10152 24-148, looked up)", "Angiogenin-1": "AQDDYRYIHFLTQHYDAKPKGRNDEYCFNMMKNRRLTRPCKDRNTFIHGNKNDIKAICEDRNGQPYRGDLRISKSEFQITICKHKGGSSRPPCRYGATEDSRVIVVGCENGLPVHFDESFITPRH"}}, "key": {"[1]": {"tested_on": "human neutrophils", "experiment": "DNA concentration in the culture supernatant, lactoferrin added after PMA stimulation", "format": "cell-based", "conditions": "p<0.001", "experimental": "From heathy volunteer, 15 ml to 20 ml of peripheral blood was sampled for one cycle of experiment with an EDTA-containing syringe (needle: 18 to 22 G). After the blood sampling, 3 ml of mono-poly resolving medium (Cat No. DSBN100, DS Pharma Biomedical Co., Ltd.) contained in 15 ml conical tube, and then 3.5 ml of the whole blood were gently stacked in the lower-layer mono-poly resolving medium. The 15 ml conical tube was centrifuged at room temperature (15 to 30° C.) at 400×g for 20 minutes by a swing-type centrifuge, and then the conical tube was taken out gently. A brown plasma layer in the top layer and a lymphocyte/monocyte layer immediately below the brown plasma layer were removed by an aspirator or the like. A transparent layer below the lymphocyte/monocyte layer was removed as much as possible. A pale pink layer below the transparent layer was taken out by a Pasteur pipette. […]\n(§1) The culture supernatant was recovered and centrifuged at 200×g for 10 minutes, and the supernatant was transferred to a new microscopic centrifuge tube. The DNA amount was measured by use of Picogreen dsDNA assay reagent (P11496 Invitrogen) in accordance with an accompanying protocol. […]"}, "[2]": {"tested_on": "human neutrophils", "experiment": "Scanning electron microscopy of neutrophils stimulated to form NETs", "format": "cell-based", "conditions": "pre-treatment 200 μg/ml, 3 hours after stimulation", "experimental": "The observation by a scanning electron microscope was performed as follows. Eosinophil granulocytes were seeded on a glass cover or a glass bottom dish for cell culture in the number of 1×10^6 and pre-treated with 200 μg/ml of human lactoferrin or were not pre-treated before stimulation for NETs. Three hours later, the sample was pre-immobilized with 0.1 M phosphoric acid buffer (pH: 7.4) containing 2% glutaraldehyde at 4° C. for 1 hour. Next, the sample was post-immobilized with 0.1 M phosphoric acid buffer (pH: 7.4) containing 1% osmium tetroxide at 4° C. for 1 hour. After the immobilization, the sample was washed with 60% ethanol, with 70% ethanol, with 80% ethanol and with 95% ethanol while being gently shaken for 5 to 10 minutes, and immersed twice in 100% ethanol for 5 to 10 minutes to be dehydrated. Critical point drying was performed by substitution with isoamyl acetate for 10 to 15 minutes. The sample were covered with a layer of sublimated osmium tetroxide by use of an osmium plasma coating device (OPC80N, Filgen, Inc.) and observed by a scanning electron microscope (JSM-6320F, JEOL, Ltd.). In the case where the neutrophils were not stimulated, the neutrophils were kept spherical and no extracellular fiber was recognized. In the case where the neutrophils were stimulated with PMA, the cells were broken and many fiber components were formed."}, "[3]": {"tested_on": "human neutrophils", "experiment": "DNA concentration in the culture supernatant (Picogreen) after pre-treatment", "format": "cell-based", "conditions": "pre-treatment 2, 20, 200 μg/ml, 3 hours after stimulation; FIG. 1-D"}, "[4]": {"tested_on": "human neutrophils", "experiment": "Rate of NETs formation in PMA-stimulated neutrophils after pre-treatment, counted by confocal microscopy", "format": "cell-based"}, "[5]": {"conditions": "bovine proteins; cited from earlier work"}, "[6]": {"tested_on": "human neutrophils", "experiment": "Specificity experiment: inhibition of NETs formation by DNA concentration in the culture supernatant", "format": "cell-based", "conditions": "n=3, p<0.01, FIG. 10", "experimental": "About 1 hour after the isolation of the neutrophils described in “1. Method of isolating human neutrophils” in Example 2, the neutrophils were pre-treated. On an 8-well microslide (Cat. No. ib 80826 Ibidi (registered trademark)), the neutrophils were seeded in 400 μl of culture DMEM+2% human serum Alb (serum human albumin; Product No. A9080 Sigma+4 mM L-glutamine) at a rate of about 1.0×10^5 cells/well, and stimulated with PMA (final concentration: 25 nM, stock: 10 mM in DMSO, Sigma Prod No. P8139). At thirty minutes before the stimulation, and at every one hour or every two hours after the stimulation, 200 μg/ml of human lactoferrin (stock: 100 mg/ml, 200 μl; Cat. No. SIGL6793, SIGMA) was added to perform inhibition [FIG. 2].\nas §1, with “protocol. Treatment with human lactoferrin at one hour and two hours after the stimulation was a similar effect to the prior pre-treatment, the DNA concentration in the culture supernatant decreased, resulting in suppression of the release of the DNAs by the NETs [FIG. 2].” for “protocol.”"}}, "data": [{"molecule": "B1", "values": [{"measurement": "DNA concentration in the culture supernatant", "setting": "[1]; 200 μg/ml added one hour after PMA stimulation", "result": "decreased"}, {"measurement": "DNA concentration in the culture supernatant", "setting": "[1]; 200 μg/ml added two hours after PMA stimulation", "result": "decreased"}, {"measurement": "fiber components of the NETs by scanning electron microscope", "setting": "[2]", "result": "form such fiber components in bundles"}, {"measurement": "DNA concentration in the culture supernatant", "setting": "[3]", "result": "decreased in a concentration-dependent manner"}, {"measurement": "rate of the NETs formed at plateau, compared with stimulation merely with PMA", "setting": "[4]; pre-treatment 2 μg/ml for 30 minutes, then PMA 25 nM", "result": "half"}, {"measurement": "rate of the NETs formed at plateau, compared with stimulation merely with PMA", "setting": "[4]; pre-treatment 20 μg/ml for 30 minutes, then PMA 25 nM", "result": "half"}, {"measurement": "formation of the NETs at plateau, compared with stimulation merely with PMA", "setting": "[4]; pre-treatment 200 μg/ml for 30 minutes, then PMA 25 nM", "result": "¼"}, {"measurement": "release of the DNAs to the outside of the cells (SYTOX green images)", "setting": "[4]; pre-treatment 200 μg/ml, FIG. 1-C", "result": "inhibited"}, {"measurement": "inhibitory effect on the formation of the NETs", "setting": "[4]; pre-treatment with 2, 20 or 200 μg/ml, FIG. 1-A, 1-B", "result": "observed similarly to the bovine lactoferrin"}]}, {"molecule": "B2", "values": [{"measurement": "Isoelectric point", "setting": "[5]", "result": 9.5}, {"measurement": "inhibition of the formation of the NETs", "setting": "[6]", "result": "Neither lactoperoxidase nor angiogenin inhibited"}]}]}
